Experimental data as given in paper PMC7054360, “pH-responsive high stability polymeric nanoparticles for targeted delivery of anticancer therapeutics” (Communications Biology, 2020).
Where no end group is shown, it is not given here. The star is where a group is joined. NBD = O=[N+]([O-])c1ccc(*)c2nonc12

Biological target: T1, bovine serum albumin (bovine, UniProt P02769 25-607)
T1 construct: bovine serum albumin; Free BSA in PBS, not the crosslinked BSA shell of the nanoparticles; also called BSA; source: bought: Sigma
T1 sequence (P02769 25-607): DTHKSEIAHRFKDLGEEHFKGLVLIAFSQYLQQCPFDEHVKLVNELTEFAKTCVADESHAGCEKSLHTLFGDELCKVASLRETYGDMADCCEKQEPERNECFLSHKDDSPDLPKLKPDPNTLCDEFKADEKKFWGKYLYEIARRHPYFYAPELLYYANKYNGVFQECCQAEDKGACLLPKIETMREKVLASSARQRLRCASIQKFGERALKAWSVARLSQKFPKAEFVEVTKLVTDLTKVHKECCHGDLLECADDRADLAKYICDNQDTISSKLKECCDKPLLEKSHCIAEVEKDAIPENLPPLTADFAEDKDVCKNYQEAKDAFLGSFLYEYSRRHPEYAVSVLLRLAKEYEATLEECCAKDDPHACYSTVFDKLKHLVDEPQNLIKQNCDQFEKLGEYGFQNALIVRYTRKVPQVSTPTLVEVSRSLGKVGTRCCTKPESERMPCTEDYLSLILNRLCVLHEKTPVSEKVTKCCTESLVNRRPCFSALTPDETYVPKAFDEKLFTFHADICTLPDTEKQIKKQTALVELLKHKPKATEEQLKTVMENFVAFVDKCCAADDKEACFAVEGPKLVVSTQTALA
Assay: fluorescence polarisation; fluorescence anisotropy of NBD; constant 0.4 uM ATRAM-NBD, increasing BSA (0.25-15 uM); PBS; room temperature; excitation 460 nm, emission 535 nm
Conditions: both partners purified

B1: NBD-labeled ATRAM (acidity-triggered rational membrane peptide), C-terminal cysteine variant (peptide)
peptide: GLAGLAGLLGLEGLLGLPLGLLEGLWLGLELEC(NBD)N
notes: designed pH-responsive ATRAM peptide, variant with a cysteine (underlined in print) next to the C-terminal residue; also called ATRAM-NBD; source: C-terminal cysteine ATRAM variant labelled with NBD; purified by PD-10 gel filtration and reverse-phase HPLC (parent ATRAM peptide: synthesized by Selleck Chemicals, Fmoc)
- Kd: 295 nM
